Assay in all cases: cell_activity
For one series, the system named is ZFN 46801 (synthetic). Particulars: pair with 46880.
The next series concerns ZFN 46816 (synthetic). Particulars: pair with 47923.
For a further series, the system named is ZFN 46934 (synthetic). Particulars: pair with 47923.
The next series has as its system ZFN 46786 (synthetic). Particulars: pair with 46880.
A further series concerns ZFN 45843 (synthetic). To be noted: pair with 45844, CD34+ cells.
The test system of the next series is ZFN 46189 (synthetic). To be noted: pair with 46188, K562.
For another series, the system named is ZFN 46228 (synthetic). To be noted: pair with 46226, K562.
The next series deals with ZFN 47923 (synthetic). To be noted: pair with 46801.
A further series has as its system ZFN 46880 (synthetic). To be noted: pair with 46801.
In the next series the test system is ZFN 46216 (synthetic). Particulars: pair with 46217, K562.
The next series has as its system ZFN 46247 (synthetic). Particulars: pair with 46246, K562.
The subject of another series is ZFN 46229 (synthetic). To be noted: pair with 46230, K562.
In the next series the test system is ZFN 46188 (synthetic). To be noted: pair with 46189, K562.
A further series deals with ZFN 46240 (synthetic). To be noted: pair with 46241, K562.
The next series deals with ZFN 46164 (synthetic). To be noted: pair with 46163, K562.
The subject of a further series is ZFN 46181 (synthetic). Particulars: pair with 46180, K562.
The subject of a further series is ZFN 46209 (synthetic). Particulars: pair with 46208, K562.
Another series deals with ZFN 46208 (synthetic). Particulars: pair with 46209, K562.
A further series has as its system ZFN 46226 (synthetic). To be noted: pair with 46228, K562.
The next series relates to ZFN 46217 (synthetic). To be noted: pair with 46216, K562.
In a further series the test system is ZFN 46246 (synthetic). Particulars: pair with 46247, K562.
A further series has as its system ZFN 46163 (synthetic). Particulars: pair with 46164, K562.
A further series has as its system ZFN 47021 (synthetic). Particulars: pair with 45843.
The subject of a further series is ZFN 45844 (synthetic). Particulars: pair with 45843, CD34+ cells.
A further series has as its system ZFN 46180 (synthetic). Particulars: pair with 46181, K562.
The subject of the next series is ZFN 46241 (synthetic). Particulars: pair with 46240, K562.
In another series the test system is ZFN 46230 (synthetic). To be noted: pair with 46229, K562.
For the next series, the system named is ZFN 46158 (synthetic). To be noted: pair with 46156, K562, Cel-I.
For another series, the system named is ZFN 46156 (synthetic). To be noted: pair with 46158, K562.

Regarding “AAAGCAACTGTTAGCTTGCACTAGACTA (double strand) [45848/46801 target]”, the activity in the series on ZFN 46801 (synthetic) was 87 % NHEJ (D0); in the series on ZFN 46816 (synthetic), 29.9 % indels; in the series with ZFN 46934 (synthetic) it was 80 % NHEJ (D0); with ZFN 46786 (synthetic), 71 % NHEJ (D0). Consider “AAGCAACTGTTAGCTTGCACTAGACTAG (double strand) [45843 target]”, for which, in the series with ZFN 45843 (synthetic), the activity was 78 % NHEJ (D0). As to “ACACCCTGTGATCTTGTGGGACCCCTCT (double strand) [46189 target]”, the activity with ZFN 46189 (synthetic) was 12.8 % NHEJ.

For the sequence “ATAGGGGTCGCGGTAGGGAGTTGTCGGC (double strand) [46228 target]”, the activity with ZFN 46228 (synthetic) is 37.8 % NHEJ. As for “CACAGGCTCCAGGAAGGGTTTGGCCTCT (double strand) [45849/46880 target]”, the activity with ZFN 47923 (synthetic) is 82 % NHEJ (D0); in the series with ZFN 46880 (synthetic) it was 87 % NHEJ (D0).

In turn, “CAGGCTGGGCTGGACAGAGGGGTCCCAC (double strand) [46216 target]” registered an activity in the series on ZFN 46216 (synthetic) of 16.6 % NHEJ. As for “CCGTCTACATAGAGGCCCTTCCTGCTTG (double strand) [46247 target]”, the activity in the series on ZFN 46247 (synthetic) stood at 17.3 % NHEJ. “CCTATCAGTGCCGACCAAGCACACAAGA (double strand) [46229 target]” had an activity in the series on ZFN 46229 (synthetic) of 37.2 % NHEJ.

In the series on ZFN 46188 (synthetic), “CCTGAGAAGGTGGGGAGCTCACAGCCTC (double strand) [46188 target]” yielded an activity of 12.8 % NHEJ.

“CTCACAGGACATGCAGCAGTGTGTGCCG (double strand) [46240 target]”: the activity in the series on ZFN 46240 (synthetic) was 25 % NHEJ. “GAAGGGAAGTGGGTATGGGGCAGCCCAT (double strand) [46164 target]” had an activity in the series on ZFN 46164 (synthetic) of 21.9 % NHEJ. “GCAATGCTTGGAGGCTGTGAGCTCCCCA (double strand) [46181 target]” registered an activity with ZFN 46181 (synthetic) of 15.2 % NHEJ. For “GCCTGGGTGTGCATCTTGTGTGCTTGGT (double strand) [46209 target]”, the activity with ZFN 46209 (synthetic) worked out at 28 % NHEJ. In the case of “GGGCTGGACAGAGGGGTCCCACAAGATC (double strand) [46208 target]”, in the series on ZFN 46208 (synthetic), the activity amounted to 28 % NHEJ. Regarding “GTGCCGACCAAGCACACAAGATGCACAC (double strand) [46226 target]”, the activity with ZFN 46226 (synthetic) came out at 37.8 % NHEJ.

In the series with ZFN 46217 (synthetic), “GTGTGCATCTTGTGTGCTTGGTCGGCAC (double strand) [46217 target]” displayed an activity of 16.6 % NHEJ. Sequence “GTGTGGCTCCTTAAGGTGACCCAGCAGC (double strand) [46246 target]” displayed an activity in the series with ZFN 46246 (synthetic) of 17.3 % NHEJ.

Consider “TAGAATTGGCCTGGGACATTCATTATTT (double strand) [46163 target]”, for which the activity in the series with ZFN 46163 (synthetic) amounted to 21.9 % NHEJ. Take “TCACAGGCTCCAGGAAGGGTTTGGCCTC (double strand) [45844 target]”: the activity was 82 % NHEJ (D0) in the series on ZFN 47021 (synthetic) and 78 % NHEJ (D0) in the series with ZFN 45844 (synthetic).

Turning to “TCATCCTGGTACCAGGAAGGCAATGGGC (double strand) [46180 target]”, the activity in the series with ZFN 46180 (synthetic) was 15.2 % NHEJ. Regarding “TCCCCAAGGCTGTGCCCAGCCTTCAGTG (double strand) [46241 target]”, in the series with ZFN 46241 (synthetic), the activity was determined as 25 % NHEJ. “TCGCGGTAGGGAGTTGTCGGCACACACT (double strand) [46230 target]” had an activity in the series with ZFN 46230 (synthetic) of 37.2 % NHEJ. In the series on ZFN 46158 (synthetic), “TCTAGGAAGGGAAGTGGGTATGGGGCAG (double strand) [46158 target]” registered an activity of 30.4 % NHEJ. For “TGGCCTGGGACATTCATTATTTAGCCAC (double strand) [46156 target]”, in the series with ZFN 46156 (synthetic), the activity stood at 30.4 % NHEJ.

For the origin of these results see US20150132269.
